The results in this text go back to publication PMC7795613.

The target in this data set is DDX3X 132-607 (human) (UniProt O00571). Kind of data set: MST. The settings on record: 20 nM labelled RNA, DDX3X 2-fold dilutions from 19 uM, 10 min at room temperature, measured at 25 C, assay buffer not stated (protein SEC buffer 50 mM …).

As a reminder, the Kd is the concentration at which binding is half-saturated. Higher therefore signals a looser complex.

Sequence of DDX3X 132-607 (human) (O00571 132-607): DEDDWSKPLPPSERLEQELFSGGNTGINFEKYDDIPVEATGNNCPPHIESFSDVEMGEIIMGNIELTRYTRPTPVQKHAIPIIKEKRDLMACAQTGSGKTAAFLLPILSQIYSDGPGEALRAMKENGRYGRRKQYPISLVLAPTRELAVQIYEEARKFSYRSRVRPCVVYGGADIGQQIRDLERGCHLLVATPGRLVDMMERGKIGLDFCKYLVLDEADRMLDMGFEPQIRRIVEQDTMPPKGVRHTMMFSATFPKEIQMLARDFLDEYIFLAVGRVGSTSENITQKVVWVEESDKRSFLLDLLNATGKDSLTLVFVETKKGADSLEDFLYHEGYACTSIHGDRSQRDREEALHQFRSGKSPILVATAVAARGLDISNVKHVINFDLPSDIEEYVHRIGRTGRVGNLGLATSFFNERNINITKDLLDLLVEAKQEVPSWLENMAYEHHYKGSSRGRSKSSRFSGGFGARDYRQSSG

As for “GGAGAAGUUUUAUCGUGUGAACUUCUUGGCUUAGUAUCGUUGAGAAGAAUCGAGAGAUUAGUGCAGUUUAAACAGUUUUUUAGAACGGAAGAACAACCAUGACUAAAAAACCAGGAGGGCCCGGAAAAAACCGGGCCAUCAAUAUGCUGAAACGCGGAU [JEV 5' TR]”, the Kd was found to be 1.66 µM. The figure for “AGUUGUUACUGUUGCUGACUCAGACUGCGACAGUUCGAGUUUGAAGCGAAAGCUAGCAACAGUAUCAACAGGUUUUAUUUGGAUUUGGAAACGAGAGUUUCUGGUCAUGAAAAACCCAAAAAAGAAAUCCGGAGGAUUCCGGAUUGUCAAUAUGCUAAAACG [ZIKV 5' TR 1-163]” is 7.05 µM.
